Our source for the Kd values is paper PMC7849368 (Genes & Development, 2021).

By Kd is commonly meant the free concentration of one partner at which half of the binding sites on the other are occupied at equilibrium, for simple one-to-one binding. A high value points to a looser complex.

The target in this test is T1, Esc2, purified, as used in microscale thermophoresis (budding yeast, UniProt Q06340 1-456).
T1 sequence: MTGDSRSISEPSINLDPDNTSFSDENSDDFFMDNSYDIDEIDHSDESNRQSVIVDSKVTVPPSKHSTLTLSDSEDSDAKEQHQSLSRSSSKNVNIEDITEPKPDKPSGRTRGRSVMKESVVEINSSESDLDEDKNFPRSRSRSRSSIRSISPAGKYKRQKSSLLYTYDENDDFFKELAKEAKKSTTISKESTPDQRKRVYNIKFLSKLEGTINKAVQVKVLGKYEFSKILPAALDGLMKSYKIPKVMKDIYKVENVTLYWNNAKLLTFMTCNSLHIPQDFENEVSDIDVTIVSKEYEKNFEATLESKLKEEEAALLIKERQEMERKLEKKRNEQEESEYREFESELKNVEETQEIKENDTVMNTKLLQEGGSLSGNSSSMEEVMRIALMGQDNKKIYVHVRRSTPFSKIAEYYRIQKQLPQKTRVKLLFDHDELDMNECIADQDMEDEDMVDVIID
The experiment in a line: MST.

B1: Ubc9, purified (enzyme)
chain: MSSLCLQRLQEERKKWRKDHPFGFYAKPVKKADGSMDLQKWEAGIPGKEGTNWAGGVYPITVEYPNEYPSKPPKVKFPAGFYHPNVYPSGTICLSILNEDQDWRPAITLKQIVLGVQDLLDSPNPNSPAQEPAWRSFSRNKAEYDKKVLLQAKQYSK
modifications: RED-tris-NTA dye on the His tag (MST only)
Take B1: binding was characterised by a dissociation constant (Kd) of 372 nM.
